Where a SMILES comes first, the peptide text is derived from it. Where no end group is shown, it is not given here.
Tests used:
[1] = target: T1, p6–UEV interaction (Homo sapiens, UniProt Q99816); test: sandwich ELISA monitoring disruption of the p6–UEV PPI; type: binding, HIV p6 / human UEV (TSG101)
T1 sequence (Q99816 2-145 limits assumed): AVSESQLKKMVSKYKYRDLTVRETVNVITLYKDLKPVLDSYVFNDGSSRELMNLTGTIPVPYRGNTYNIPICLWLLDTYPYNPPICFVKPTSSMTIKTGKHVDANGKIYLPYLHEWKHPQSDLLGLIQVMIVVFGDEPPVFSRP

[2] = test system: GAG-mediated budding of virus-like particles from HEK293T cells; test: virus-like particle budding assay; type: cell-based, human; conditions: 25 μM
[3] = target: T2, His6-UEV (ubiquitin E2 variant domain of the human TSG101 protein) (human, UniProt Q99816 2-145); test: fluorescence polarisation
T2 sequence: T1 sequence (Q99816 2-145 limits assumed)

[4] = target: T2, His6-UEV (ubiquitin E2 variant domain …); test: ELISA

## CC[C@H](C)[C@@H]1NC(=O)[C@H](Cc2c[nH]c3ccccc23)NC(=O)CNC(=O)[C@H](CO)NC(=O)[C@H](C(C)C)NC(=O)[C@H](CC(N)=O)NC(=O)[C@H](Cc2c[nH]c3ccccc23)NC(=O)[C@H](Cc2ccc(O)cc2)NC1=O [CP11] (cyclo(GWIYWNVS))
[1]
  IC50: 30.2 ± 2.2 µM

## CGRKKRRQRRRPPQ [Tat]
[2]
  effect on viral budding: no effect

B1: N-terminal FITC-labeled peptide 3 (peptide)
chain: GVAGGAACLHFFLSMPPSHVLDIC
modifications: FITC on the N-terminus; two non-overlapping lanthionine (thioether) rings
[3]
  Kd: 5.5 µM

B2: GST-p6 (GST-tagged HIV p6 protein) (natural protein)
chain: LQSRPEPTAPPEESFRSGVETTTPPQKQEPIDKELYPLTSLRSLFGNDPSSQ
[4]
  EC50: 0.948 µM

B3: FITC labelled PTAP peptide (GGPEPTAPPEE) (peptide)
peptide: GGPEPTAPPEE
modifications: also: FITC label, position not given here
[3]
  Kd: 16.6 µM
